Data published in patent US20070196275A1, “Diagnostic Imaging Compositions, Their Methods Of Synthesis And Use” (priority 2001, published 2007).

Key:
[1] = design: species or system Nude mice; settings: mouse, in vivo; for clearance / t1/2, α / t1/2, β / terminal half-life (rounded figures): iv
Procedure: At predetermined intervals, blood samples (30-60 μl) were taken from the medial saphenous vein by puncture, and the radioactivity of each sample was measured with a Cobra Autogamma counter (Packard, Downers Grove, Ill.). The pharmacokinetic parameters for each radiotracer were calculated from mean blood concentration values observed over the study period using WinNonlin™ 2.1 software (Scientific Consulting, Inc., Lexington, Ky.). The mice were killed at the end of the study, and the liver, muscle, kidneys, and spleen were removed, weighed, and measured for radioactivity. The data are expressed as percentage of injected dose per gram of tissue. In FIG. 15A, the y-axis represents % Injected dose/ml blood; the x-axis represents time in hours. Squares represent Annexin V. Diamonds represent PEG-Annexin V. In FIG. 15B, the y-axis represents % Injected dose/g tissue. From left to right, the paired bars in FIG. 15B represent blood, liver, kidney, spleen, and muscle tissues, respectively. The bars on the left of the paired bars represent Annexin V. The bars on the right of the paired bars represent PEG-Annexin V.

[2] = tested on: Ara-C treated HL60 and Raji cells (apoptotic cells); assay: Cell binding assay of radiolabeled PEGylated annexin V; design: species or system human; settings: 1.0 μM Ara-C
Procedure: The 1:30 and 1:60 preps of PEGylated annexin V were tested for their ability to bind to cells that had been treated with Ara-C to induce apoptosis. Human leukemia HL60 or human B-cell lymphoma Raji cells (1×10^6 cells/ml each) were treated with Ara-C at 1.0 μM for 6 hours or 22 hours to induce apoptosis. The cells were then washed twice with PBS and re-suspended in binding buffer (10 mM HEPES/NaOH, pH 7.5 containing 140 mM NaCl and 2.5 mM CaCl2) at a concentration of 1×10^6 cells/ml. Five μl annexin V-FITC solution (50 μg/ml in 50 mM Tris-HCl, pH 7.5, containing 100 mM NaCl) was added into the control cells as well as treated cells. The mixtures were incubated at room temperature for 10 minutes. Apoptotic cells stained with annexin V-FITC (Sigma) were quantified with a Labsystems Fluoroskan FL flow cytometer (Helsinki, Finland) (FIG. 13). […] The cells were washed twice with PBS, centrifuged and counted for cell-associated radioactivity (FIG. 14). FIG. 13 is a bar graph showing apoptotic index after treatment with 1.0 uM Ara-C as quantified by flow cytometry analysis using annexin V-FITC as fluorescent probe. In FIG. 13, the y-axis represents the percent apoptotic cells; the x-axis represents the time after treatment in hours. […] In FIG. 14, the y-axis represents radioactivity in cpm; the x-axis represents time after treatment in hours. […]

[3] = tested on: MDA-MB-468 tumors; design: species or system mice; settings: mouse, in vivo
Procedure: The following materials and methods were used in this example. Human breast adenocarcinoma MDA-MB-468 cells were maintained in 1:1(v/v) Dulbecco's modified Eagle's medium (DMEM)/Ham's F-12 mixture supplemented with 10% fetal bovine serum (FBS) (Gibco Laboratories, Grand Island, N.Y.) at 37 C in 5% CO2/95% air. […] Mice in Group I were not treated and were used as a control. In Group II, mice were injected intravenous with PG-paclitaxel (PG-TXL) at an equivalent paclitaxel (Taxol, TXL) dose of 100 mg/kg 1 day before the injection of radiotracer. PG-TXL is a water-soluble polymeric conjugate of paclitaxel and poly(l-glutamic acid). […] The conjugate has the same mechanism of action as paclitaxel. […] Radioactivity of each sample was measured with the Cobra Auto-gamma Counter (Packard, Downers Grove, Ill.). The percentage of the injected dose per gram of tissue (% ID/g tissue) was calculated for each sample. In a separate experiment, tumors were histologically analyzed to quantify apoptotic index induced by drug treatments. […] Apoptosis index was scored in coded slides by microscopic examination at 400× magnification. Five fields of nonnecrotic areas were randomly selected in each histological specimen, and in each field the number of apoptotic nuclei were recorded as numbers per 100 nuclei and were expressed as a percentage. […]

[4] = tested on: HL60 cells and Raji cells; assay: Flow cytometry of apoptotic cells stained with annexin V-FITC; format: cell-based, human; settings: 1.0 μM, 22 hours, annexin V-FITC staining
Procedure: The 1:30 and 1:60 preps of PEGylated annexin V were tested for their ability to bind to cells that had been treated with Ara-C to induce apoptosis. Human leukemia HL60 or human B-cell lymphoma Raji cells (1×10^6 cells/ml each) were treated with Ara-C at 1.0 μM for 6 hours or 22 hours to induce apoptosis. The cells were then washed twice with PBS and re-suspended in binding buffer (10 mM HEPES/NaOH, pH 7.5 containing 140 mM NaCl and 2.5 mM CaCl2) at a concentration of 1×10^6 cells/ml. Five μl annexin V-FITC solution (50 μg/ml in 50 mM Tris-HCl, pH 7.5, containing 100 mM NaCl) was added into the control cells as well as treated cells. The mixtures were incubated at room temperature for 10 minutes. Apoptotic cells stained with annexin V-FITC (Sigma) were quantified with a Labsystems Fluoroskan FL flow cytometer (Helsinki, Finland) (FIG. 13). […] The cells were washed twice with PBS, centrifuged and counted for cell-associated radioactivity (FIG. 14).
FIG. 13 is a bar graph showing apoptotic index after treatment with 1.0 uM Ara-C as quantified by flow cytometry analysis using annexin V-FITC as fluorescent probe. In FIG. 13, the y-axis represents the percent apoptotic cells; the x-axis represents the time after treatment in hours. […] In FIG. 14, the y-axis represents radioactivity in cpm; the x-axis represents time after treatment in hours. […]

[5] = tested on: MDA-MB-468 tumors; assay: Autoradiography and TUNEL assay; format: in vivo, mice; settings: 4 days after treatment, intratumoral distribution of ^111In-DTPA-PEG-AV
From the text: Two tumors removed from each group of mice at the end of the gamma imaging session were rapidly frozen, processed, and 8-μm sections were made. The sliced sections were fixed in cold acetone, dried, and exposed to a multipurpose storage phosphor screen for 10 days. A Cyclone™ Storage Phosphor System (Packard Instrument Company, Inc., Meriden, Conn.) was used to obtain autoradiographic images. The radioactivity at selected field of view is expressed as digital light unit per millimeter square (DLU/mm^2).
DNA fragmentation was analyzed by terminal deoxynucleotidyl transferase (TdT)-uridine nick end labeling (TUNEL) using a commercial kit according to the manufacturer provided protocol (Promega, Madison, Wis.). Frozen tissue sections (8 μm) were fixed with 4% paraformaldehyde (methanol-free) for 10 minutes at room temperature. The sections were washed with PBS two times (5 minutes each) and incubated with equilibration buffer (Promega) for 10 minutes at room temperature. […] Images were recorded using an Olympus fluorescence microscope (Olympus, Melville, N.Y.) with 520 nm filter and 20× object lens. Apoptotic cells per slide view were quantified by AAB colony counting software (Advanced American Biotechnology, Fullerton, Calif.) and expressed as number per field of view (0.016 mm^2).

Q: With “1:15 prep ^111In-DTPA-PEG-annexin V: ^111In-labeled annexin V PEGylated with SCN-PEG-DTPA, 1:15 prep” as the compound, how does the “percentage of injected dose per gram of tissue, blood” value [1] read?
A: Its value is 0.36±0.05%.

Q: What about the “percentage of injected dose per gram of tissue, kidney” value [1] of the same compound?
A: The value was 22.35±4.74%.

Q: And the “percentage of injected dose per gram of tissue, liver” value [1]?
A: Its value is 8.37±2.76%.

Q: What about the “percentage of injected dose per gram of tissue, muscle” value [1] of the same compound?
A: Its value is 0.75±0.04%.

Q: And the “percentage of injected dose per gram of tissue, spleen” value [1]?
A: Its value is 6.75±0.44%.

Q: What about the clearance [1] of the same compound?
A: Its clearance is 0.01 mL/h.

Q: What about the “t1/2, α” value [1] of the same compound?
A: The value was 4.90 h.

Q: What about the “t1/2, β” value [1] of the same compound?
A: The value was 26.3 h.

Q: And the “terminal half-life (rounded figures)” value [1]?
A: The value was 26 h.

Q: For “1:30 prep of ^111In-DTPA-PEG-AV: ^111In-labeled annexin V PEGylated with SCN-PEG-DTPA at molar ratio 1:30”, which “increase of cell associated radioactivity after treatment with Ara-C” value ([2]; HL60 and Raji cells) is on record?
A: Its value is 4-6 fold.

Q: What about the “change of tumor uptake 1 day after PG-TXL” value [3] of the same compound?
A: The value was “slight but non-significant increase of the radiotracer in the tumor”.

Q: For “1:60 prep of ^111In-DTPA-PEG-AV: ^111In-labeled annexin V PEGylated with SCN-PEG-DTPA at molar ratio 1:60”, which “binding to Ara-C treated cells” value ([2]; Raji cells) is on record?
A: Its value is “did not show binding to the Ara-C treated cells”.

Q: Which “increase of percentage of apoptotic cells” value [4] does the source give for `Nc1ccn([C@@H]2O[C@H](CO)[C@@H](O)[C@@H]2O)c(=O)n1` [Ara-C] here?
A: The value was 4-10 fold.

Q: With “^111In-DTPA-annexin V: ^111In-labeled annexin V with DTPA, without PEG; comparison [reference compound]” as the compound, how does the clearance [1] read?
A: Its clearance is 0.4 mL/h.

Q: What about the “t1/2, α” value [1] of the same compound?
A: The value was 0.07 h.

Q: What about the “t1/2, β” value [1] of the same compound?
A: The value was 17.4 h.

Q: And the “terminal half-life (rounded figures)” value [1]?
A: Its value is 17 h.

Q: With “poly (L-glutamic acid)-paclitaxel conjugate [PG-TXL]” as the compound, how does the “apoptotic response of the tumor to treatment” value [5] read?
A: Its value is “increased apoptosis”.
